The test system of data set [1] is PilE S63A variant of N. meningitidis MC58 pilin (pPilES63A).
Data set [2] relates to PilE N61A variant of N. meningitidis MC58 pilin (pPilEN61A).
Data set [3] has as its system N. meningitidis MC58 pilin (PilE, expression product of pilE, Accession No. AAF40497).
Data set [4] relates to PilE T62A variant of N. meningitidis MC58 pilin (pPilET62A).
For data set [5], the system named is PilE N60A variant of N. meningitidis MC58 pilin (pPilEN60A).

“PglL oligosaccharyltransferase of N. meningitidis MC58 (Accession No. AAF41024), His10-tagged (pAMF5)”: the “transfer of O7 polysaccharide to PilE (western blot)” value is “mutation S63A completely abolishes transfer of the polysaccharide to PilE” in data set [1]; “mutation of N60, N61 and T62 do not affect glycosylation” in data set [2]; “mutation of N60, N61 and T62 do not affect glycosylation” in data set [4]; “mutation of N60, N61 and T62 do not affect glycosylation” in data set [5]. The “glycosylation of pilin in E. coli CLM24 (western blot, band shift)” value in data set [3] is “an extra band of slower electrophoretic mobility was detected with both a monoclonal anti-pilin antiserum and the C. jejuni glycan-specific R12 antiserum”.

Values taken from patent publication US9238830.
